Test [1] has as its target mouse PD-1 (endogenous, on mouse CD4+ and CD8+ T cells) (mouse) (UniProt Q02242). The test can be described thus: cell-based or functional assay.
For test [2], the target named is T1, DD1α-HA (HA-tagged DD1α expressed in 293T cells or on Jurkat cells) (human, UniProt Q9H7M9 33-311).
T1 construct: also called Jurkat/DD1α; DD1α-transfected Jurkat cells; not shown: HA tag
Description: competition with DD1α-Ig and PD-1-Ig for binding to Jurkat cells transfected with DD1α, flow cytometry. On the technique in general: In flow cytometry, cells or beads pass a laser one at a time.

The results in this text go back to US20220401536A1 (published 2022).

Sequence of mouse PD-1 (endogenous, on mouse CD4+ and CD8+ T cells) (mouse) (Q02242 25-288): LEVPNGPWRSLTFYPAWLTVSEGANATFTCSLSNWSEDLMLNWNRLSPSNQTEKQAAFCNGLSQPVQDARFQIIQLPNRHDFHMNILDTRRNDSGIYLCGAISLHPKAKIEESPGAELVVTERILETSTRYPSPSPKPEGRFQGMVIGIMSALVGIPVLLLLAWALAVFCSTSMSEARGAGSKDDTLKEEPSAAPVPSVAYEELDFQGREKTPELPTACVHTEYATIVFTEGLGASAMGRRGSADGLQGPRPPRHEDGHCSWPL

B1: mouse DD1α (endogenous, on mouse T cells or CD11b+Gr-1+ MDSCs) (receptor, UniProt Q9D659 33-308, looked up)
chain: FKVTTPYSLYVCPEGQNATLTCRILGPVSKGHDVTIYKTWYLSSRGEVQMCKEHRPIRNFTLQHLQHHGSHLKANASHDQPQKHGLELASDHHGNFSITLRNVTPRDSGLYCCLVIELKNHHPEQRFYGSMELQVQAGKGSGSTCMASNEQDSDSITAAALATGACIVGILCLPLILLLVYKQRQVASHRRAQELVRMDSNTQGIENPGFETTPPFQGMPEAKTRPPLSYVAQRQPSESGRYLLSDPSTPLSPPGPGDVFFPSLDPVPDSPNSEAI
In test [1], B1 showed a CFSE- and Far Red-double-positive events: DD1α-/- CD11b+Gr-1+ MDSCs with PD-1-/- CD8+ T cells of 1.36%; a CFSE- and Far Red-double-positive events: DD1α-null CD11b+Gr-1+ MDSCs with Wt CD8+ T cells of 7.1%; a CFSE- and Far Red-double-positive events: Wt CD11b+Gr-1+ MDSCs with PD-1-/- CD8+ T cells of 6.59%; a CFSE- and Far Red-double-positive events: Wt CD11b+Gr-1+ MDSCs with Wt CD8+ T cells of 22%. In test [1], the proliferation of CD4+ T cells (CFSE dilution) with DD1α-/- CD11b+Gr-1high MDSCs was 70% and the proliferation of CD8+ T cells (CFSE dilution) with DD1α-/- CD11b+Gr-1high MDSCs came to 63%.

B2: anti-DD1α monoclonal antibody 2B11 (antibody, V domains shown)
VH: EVQLVESGGDLVKPGGSLKLSCAASGFTFSNYGMSWVRQTPDKRLEYVATINSGGSYTYYPDSVKGRFTISRDNAKTTLYLQMSSLKSEDTAMYYCARIYDYDGDYYALDYWGQGTSVTVSS
VL: DVLMTQTPLSLPVSLGDQASISCRSSQSIVHTNGNTYLEWYLQKPGQSPKLLIYKVSNRFSGVPDRFSGSGSGTDFTLKISRVEAEDLGVYYCFQGSHVPWTFGGGTKLEIK
notes: Purified from hybridoma; also called DD1α-specific Ab 2B11
As to B2, the binding result in test [2] is listed as “binds”.
